Assay results reported in the supplement of paper PMC10724198.
± gives the standard deviation of the averaged measurements.

System: Saccharomyces cerevisiae
Test: protein stability index of tFT-peptide fusion (C-terminal peptide) (PSI (0-1 scale)); higher = more stable (slower turnover)
Settings: genetic background: wild type; temperature: 30 C
Protocol: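 MPS profiling in S. cerevisiae of the tFT-X12 degron library: putative degron peptides plus stable controls, 12 aa, fused to the C-terminus of a sfGFP-mCherry timer. Cells are FACS-sorted into 8 mCherry/sfGFP bins and deep-sequenced. PSI runs from 0 (unstable) to 1 (stable). Backgrounds are wild type, das1Δ and doa10Δ at 30 °C, and wild type, das1Δ, cdc34-1 and cdc53-1 at 37 °C; 2-3 technical replicates each.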
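Also: PSI is a weighted mean of sequencing reads over stability bins, variants kept only with over 10 reads, mCherry proximal and sfGFP distal, peptide attached via GGGS linker.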

Sequence	protein stability index
GRWVLALCLVCG	0.194 ± 0.026
GSLLNLSLRWLV	0.138 ± 0.022
GTMGWYSISRRL	0.646 ± 0.022
GVCRFFCLVFCS	0.441 ± 0.018
GVCSFFVCVFFV	0.177 ± 0.024
GVFLVWWVGFWV	0.238 ± 0.029
GVLFHIVLHFMV	0.194 ± 0.023
GVMSICRWMISV	0.275 ± 0.035
GVQFRRPLIPIY	0.35 ± 0.025
GVVCVLGFALFV	0.3 ± 0.028
GWGVFFVMRIQV	0.198 ± 0.024
GWLVGLGLVFFT	0.499 ± 0.031
GWRRRIWLCRLQ	0.412 ± 0.036
GYLFICSWCEGF	0.346 ± 0.018
HDRLRGVFWRVP	0.308 ± 0.032
HGVRLHTVWVGG	0.4 ± 0.033
HLKKKLKIRLIN	0.116 ± 0.02
HSRALLPYLSYH	0.388 ± 0.021
HTYSFRLLFIFL	0.321 ± 0.022
HVPPVFQASLSP	0.667 ± 0.017
ICFFQGVVVLFR	0.303 ± 0.044
IFFVLVFFPGFF	0.374 ± 0.0071
IFHWLYLLIALI	0.254 ± 0.029
IFLKFGLLRSLL	0.628 ± 0.046
IGMVSELLLFYP	0.667 ± 0.045
IGSFYVLSFICQ	0.458 ± 0.043

Sequence	protein stability index
IHTFSVVVVVAA	0.114 ± 0.031
IIFACFYGVFLM	0.0949 ± 0.036
ILDRRPRTFALV	0.113 ± 0.011
IMGGLRHRIEVY	0.268 ± 0.034
IRSLRPFLLPLF	0.306 ± 0.03
IRVFSFLLFGCF	0.364 ± 0.027
ISFQFFVCLCAR	0.161 ± 0.018
ISHLQCFFVVML	0.346 ± 0.034
ISLSSLYVVMYV	0.195 ± 0.027
IVFFVLFRFWRF	0.294 ± 0.017
IVRLGRWLGLSC	0.261 ± 0.028
IYEAFLVFCLCG	0.287 ± 0.015
KKKEIIKIIKIN	0.0729 ± 0.034
KKKKKKKIKIMS	0.232 ± 0.051
KKKNIYKVMKLE	0.19 ± 0.041
KLCVGLVLSFVC	0.206 ± 0.023
KWGRFQQVMVIN	0.156 ± 0.022
KYQVIILQTRKI	0.252 ± 0.053
LACGIDGYYWRH	0.682 ± 0.028
LAFMYFVCPRLA	0.269 ± 0.031
LAVVLVWVPGRW	0.347 ± 0.023
LCFFLAFSFVFF	0.236 ± 0.022
LCFGMVELMWIY	0.377 ± 0.037
LCFRLVSYLCIN	0.221 ± 0.011
LCGIFTFRLSLL	0.273 ± 0.024
LCIYNFGWWFCV	0.134 ± 0.0087

Sequence	protein stability index
LCLLCWIPCSFR	0.4661 ± 0.0017
LCLLFLSFFFVC	0.234 ± 0.027
LCVVVICCLMAR	0.125 ± 0.026
LDLSSVFILYFN	0.28 ± 0.028
LEGRFLACRGIC	0.157 ± 0.011
LEVHGSCIFICV	0.374 ± 0.0092
LFAIFLVVLLFR	0.201 ± 0.028
LFFPLPGILSFF	0.498 ± 0.02
LFFWVLTVMFVW	0.195 ± 0.015
LFGRVLSGILSV	0.524 ± 0.037
LFLLSHYALCFY	0.336 ± 0.017
LFLSFLLFVLAF	0.312 ± 0.045
LFLSIFFFHLLF	0.313 ± 0.01
LFPVFFPLFAPA	0.271 ± 0.018
LFSCTQLLPITA	0.176 ± 0.018
LFSIFMSYRVYI	0.312 ± 0.0037
LFSTRRWISVCA	0.054 ± 0.0027
LFSVLVFIYFVM	0.133 ± 0.0054
LFTSGNSLVLVH	0.25 ± 0.034
LFYVSFLFMLLF	0.325 ± 0.013
LGALFGRFWWYF	0.291 ± 0.023
LGCLVWGGVWGV	0.638 ± 0.016
LGFSHTRAIFFV	0.213 ± 0.0094
LGGCVSYINLLA	0.236 ± 0.015
LGRFHLACLLFL	0.412 ± 0.035
LGVLVVAFCGGC	0.347 ± 0.023

Same assay, conditions: genetic background: wild type; temperature: 37 C

Sequence	protein stability index
GRWVLALCLVCG	0.273 ± 0.0044
GSLLNLSLRWLV	0.226 ± 0.0075
GTMGWYSISRRL	0.729 ± 0.0091
GVCRFFCLVFCS	0.4723 ± 0.003
GVCSFFVCVFFV	0.303 ± 0.0089
GVFLVWWVGFWV	0.455 ± 0.047
GVLFHIVLHFMV	0.305 ± 0.029
GVMSICRWMISV	0.439 ± 0.017
GVQFRRPLIPIY	0.517 ± 0.0099
GVVCVLGFALFV	0.473 ± 0.0053
GWGVFFVMRIQV	0.301 ± 0.029
GWLVGLGLVFFT	0.618 ± 0.011
GWRRRIWLCRLQ	0.662 ± 0.054
GYLFICSWCEGF	0.4849 ± 0.0034
HDRLRGVFWRVP	0.5752 ± 0.0019
HGVRLHTVWVGG	0.5437 ± 0.005
HLKKKLKIRLIN	0.171 ± 0.018
HSRALLPYLSYH	0.558 ± 0.012
HTYSFRLLFIFL	0.45677 ± 0.00022
HVPPVFQASLSP	0.7131 ± 0.0057
ICFFQGVVVLFR	0.4521 ± 0.0013
IFFVLVFFPGFF	0.506 ± 0.012
IFHWLYLLIALI	0.312 ± 0.014
IFLKFGLLRSLL	0.792 ± 0.053
IGMVSELLLFYP	0.73 ± 0.008
IGSFYVLSFICQ	0.592 ± 0.014

Sequence	protein stability index
IHTFSVVVVVAA	0.128 ± 0.03
IIFACFYGVFLM	0.109 ± 0.0083
ILDRRPRTFALV	0.149 ± 0.008
IMGGLRHRIEVY	0.437 ± 0.0067
IRSLRPFLLPLF	0.543 ± 0.0084
IRVFSFLLFGCF	0.488 ± 0.02
ISFQFFVCLCAR	0.253 ± 0.0092
ISHLQCFFVVML	0.485 ± 0.0089
ISLSSLYVVMYV	0.3919 ± 0.0016
IVFFVLFRFWRF	0.442 ± 0.013
IVRLGRWLGLSC	0.494 ± 0.028
IYEAFLVFCLCG	0.4385 ± 0.0019
KKKEIIKIIKIN	0.0954 ± 0.039
KKKKKKKIKIMS	0.293 ± 0.032
KKKNIYKVMKLE	0.307 ± 0.025
KLCVGLVLSFVC	0.3964 ± 0.0008
KWGRFQQVMVIN	0.34 ± 0.025
KYQVIILQTRKI	0.491 ± 0.02
LACGIDGYYWRH	0.709 ± 0.017
LAFMYFVCPRLA	0.464 ± 0.022
LAVVLVWVPGRW	0.561 ± 0.05
LCFFLAFSFVFF	0.3374 ± 0.0016
LCFGMVELMWIY	0.471 ± 0.018
LCFRLVSYLCIN	0.37 ± 0.013
LCGIFTFRLSLL	0.437 ± 0.005
LCIYNFGWWFCV	0.128 ± 0.014

Sequence	protein stability index
LCLLCWIPCSFR	0.616 ± 0.0074
LCLLFLSFFFVC	0.361 ± 0.0065
LCVVVICCLMAR	0.216 ± 0.012
LDLSSVFILYFN	0.54398 ± 0.00036
LEGRFLACRGIC	0.325 ± 0.02
LEVHGSCIFICV	0.492 ± 0.026
LFAIFLVVLLFR	0.2089 ± 0.0002
LFFPLPGILSFF	0.676 ± 0.033
LFFWVLTVMFVW	0.283 ± 0.015
LFGRVLSGILSV	0.68 ± 0.011
LFLLSHYALCFY	0.527 ± 0.012
LFLSFLLFVLAF	0.425 ± 0.0086
LFLSIFFFHLLF	0.385 ± 0.041
LFPVFFPLFAPA	0.36504 ± 0.00017
LFSCTQLLPITA	0.166 ± 0.0061
LFSIFMSYRVYI	0.44 ± 0.031
LFSTRRWISVCA	0.0577 ± 0.015
LFSVLVFIYFVM	0.217 ± 0.025
LFTSGNSLVLVH	0.362 ± 0.0076
LFYVSFLFMLLF	0.447 ± 0.029
LGALFGRFWWYF	0.541 ± 0.016
LGCLVWGGVWGV	0.727 ± 0.041
LGFSHTRAIFFV	0.396 ± 0.0071
LGGCVSYINLLA	0.3917 ± 0.0035
LGRFHLACLLFL	0.543 ± 0.014
LGVLVVAFCGGC	0.5327 ± 0.00083
